Reference: patent US20230248855A1 (ACTINIUM PHARMACEUTICALS, published 2023)
Values belong to the binder of their own block, whether it stands above or below them.

Target: T1, human recombinant HER3 (human, UniProt P21860 20-643)
T1 construct: Plate-coated recombinant protein in the ELISA
Assay: ELISA, plate coated with human recombinant HER3, anti-human IgG F(ab')2-HRP detection
Method: A secondary antibody (Goat Anti-human IgG F(ab′)20-HRP) was added and incubated for 30 min on ice followed by color development using […] for 10 min.

T1 sequence (P21860 20-643 limits assumed): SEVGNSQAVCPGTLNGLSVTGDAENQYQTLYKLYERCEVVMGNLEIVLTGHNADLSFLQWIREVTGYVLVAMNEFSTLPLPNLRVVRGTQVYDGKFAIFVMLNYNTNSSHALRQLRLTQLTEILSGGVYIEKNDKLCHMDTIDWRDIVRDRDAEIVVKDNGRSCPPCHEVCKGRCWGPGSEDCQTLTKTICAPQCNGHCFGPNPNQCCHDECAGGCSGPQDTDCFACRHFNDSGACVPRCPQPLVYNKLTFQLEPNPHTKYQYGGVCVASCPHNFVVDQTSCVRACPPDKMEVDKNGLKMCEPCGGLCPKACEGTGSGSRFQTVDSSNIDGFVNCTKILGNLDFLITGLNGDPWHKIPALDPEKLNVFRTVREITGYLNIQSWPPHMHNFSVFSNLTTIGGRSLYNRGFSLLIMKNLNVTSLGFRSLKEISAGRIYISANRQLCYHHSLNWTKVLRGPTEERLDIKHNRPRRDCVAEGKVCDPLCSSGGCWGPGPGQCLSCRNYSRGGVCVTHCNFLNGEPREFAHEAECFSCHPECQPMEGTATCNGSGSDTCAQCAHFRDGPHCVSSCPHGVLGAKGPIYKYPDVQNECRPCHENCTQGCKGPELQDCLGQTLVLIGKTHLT

EC50: 1.7 ng/mL
B1: 225Ac-HER3-ARC (Ac225 labeled DOTA-conjugated anti-HER3 monoclonal antibody) (antibody, human IgG1, kappa, V domains shown)
VH: QVQLVESGGGLVKPGGSLRLSCAASGFTFSDYAMSWIRQAPGKGLEWVSTISDGGTYTYYPDSVKGRFTISRDNAKNSLYLQMNSLRAEDTAVYYCAREWGDYDGFDYWGQGTLVTVSS
VL: DIQMTQSPSSLSASVGDRVTITCRASQEISGYLSWYQQKPGKAPKRLIYAASTLDSGVPSRFSGSGSGTEFTLTISSLQPEDFATYYCLQYDSYPYTFGQGTKLEIKR
modifications: DOTA chelator conjugated using p-SCN-Bn-DOTA and chelating Actinium-225; sites and chain not stated

EC50: 2.2 ng/mL
B2: anti-HER3 IgG monoclonal antibody consisting of heavy chain SEQ ID NO:77 and light chain SEQ ID NO:78 (unmodified) (antibody, V domains shown)
VH: B1 VH
VL: B1 VL
notes: IgG, detected with an anti-human IgG secondary antibody; also called unmodified anti-HER3 antibody; unmodified anti-HER3 mAb
